Here are results for 5 sequences from the supplement of paper PMC5998384.

For data set [1], the system named is HeLa Kyoto. The data set is described as follows: solubility in G1/S (NP-40 vs SDS abundance) (log2 ratio); higher = more soluble. The settings on record: cell cycle stage: G1/S.
The subject of data set [2] is HeLa Kyoto. The data set is described as follows: melting temperature (median over replicates), in situ; higher = more thermally stable.
Data set [3] relates to HeLa Kyoto. The data set can be described thus: thermal stability score vs G1/S (z-score of summed log2 fold changes over temperatures); higher = more thermally stable than in G1/S.
For data set [4], the system named is HeLa Kyoto. The data set is described as follows: solubility change mitosis vs G1/S (difference of NP-40 vs SDS log2 ratios) (log2 ratio difference); higher = more soluble in mitosis.
Setting [5] is: cell cycle stage: early G1 (4.5 h after nocodazole release).
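For melting temperature (median over replicates), in situ in this document: HeLa Kyoto cells synchronized by double thymidine or nocodazole block, proteins quantified by TMT10plex mass spectrometry, three independent biological replicates.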
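For solubility change mitosis vs G1/S (difference of NP-40 vs SDS log2 ratios) in this document: synchronized HeLa Kyoto cells (double thymidine block for G1/S, nocodazole release for mitosis), protein amounts in NP-40 versus SDS lysates quantified by mass spectrometry, three biological replicates.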
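For solubility in G1/S (NP-40 vs SDS abundance) in this document: HeLa Kyoto cells arrested at G1/S by double thymidine block, proteins quantified by TMT10plex mass spectrometry in mild NP-40 versus SDS extracts, three biological replicates.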
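For thermal stability score vs G1/S (z-score of summed log2 fold changes over temperatures) in this document: synchronized HeLa Kyoto cells, proteins quantified by TMT10plex mass spectrometry, three biological replicates, mitosis taken 0.5 h after nocodazole release, G1/S directly after double thymidine block.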

As for “MGGRVFLAFCVWLTLPGAETQDSRGCARWCPQNSSCVNATACRCNPGFSSFSEIITTPTETCDDINECATPSKVSCGKFSDCWNTEGSYDCVCSPGYEPVSGAKTFKNESENTCQDVDECQQNPRLCKSYGTCVNTLGSYTCQCLPGFKFIPEDPKVCTDVNECTSGQNPCHSSTHCLNNVGSYQCRCRPGWQPIPGSPNGPNNTVCEDVDECSSGQHQCDSSTVCFNTVGSYSCRCRPGWKPRHGIPNNQKDTVCEDMTFSTWTPPPGVHSQTLSRFFDKVQDLGRDSKTSSAEVTIQNVIKLVDELMEAPGDVEALAPPVRHLIATQLLSNLEDIMRILAKSLPKGPFTYISPSNTELTLMIQERGDKNVTMGQSSARMKLNWAVAAGAEDPGPAVAGILSIQNMTTLLANASLNLHSKKQAELEEIYESSIRGVQLRRLSAVNSIFLSHNNTKELNSPILFAFSHLESSDGEAGRDPPAKDVMPGPRQELLCAFWKSDSDRGGHWATEGCQVLGSKNGSTTCQCSHLSSFAILMAHYDVEDWKLTLITRVGLALSLFCLLLCILTFLLVRPIQGSRTTIHLHLCICLFVGSTIFLAGIENEGGQVGLRCRLVAGLLHYCFLAAFCWMSLEGLELYFLVVRVFQGQGLSTRWLCLIGYGVPLLIVGVSAAIYSKGYGRPRYCWLDFEQGFLWSFLGPVTFIILCNAVIFVTTVWKLTQKFSEINPDMKKLKKARALTITAIAQLFLLGCTWVFGLFIFDDRSLVLTYVFTILNCLQGAFLYLLHCLLNKKVREEYRKWACLVAGGSKYSEFTSTTSGTGHNQTRALRASESGI [CD97]”, the “solubility in G1/S (log2)” value in the data set with HeLa Kyoto [1] was determined as 0.257. Further, the values for the melting temperature in the data set with HeLa Kyoto [2] (cell cycle stage: G1/S) and in the data set on HeLa Kyoto [2] (cell cycle stage: mitosis) were 59.6 °C and 58.4 °C, respectively. For the same sequence, the thermal stability score is 0.176 with HeLa Kyoto [3] (setting [5]) and -0.537 with HeLa Kyoto [3] (cell cycle stage: mitosis). For the same sequence, the “solubility change mitosis (log2)” value with HeLa Kyoto [4] was -0.171.
Take “MGGVGEPGPREGPAQPGAPLPTFCWEQIRAHDQPGDKWLVIERRVYDISRWAQRHPGGSRLIGHHGAEDATDAFRAFHQDLNFVRKFLQPLLIGELAPEEPSQDGPLNAQLVEDFRALHQAAEDMKLFDASPTFFAFLLGHILAMEVLAWLLIYLLGPGWVPSALAAFILAISQAQSWCLQHDLGHASIFKKSWWNHVAQKFVMGQLKGFSAHWWNFRHFQHHAKPNIFHKDPDVTVAPVFLLGESSVEYGKKKRRYLPYNQQHLYFFLIGPPLLTLVNFEVENLAYMLVCMQWADLLWAASFYARFFLSYLPFYGVPGVLLFFVAVRVLESHWFVWITQMNHIPKEIGHEKHRDWVSSQLAATCNVEPSLFTNWFSGHLNFQIEHHLFPRMPRHNYSRVAPLVKSLCAKHGLSYEVKPFLTALVDIVRSLKKSGDIWLDAYLHQ [FADS3]”: the “solubility in G1/S (log2)” value in the data set on HeLa Kyoto [1] was -0.263. Further, the results for the melting temperature in the data set on HeLa Kyoto [2] (cell cycle stage: G1/S) and in the data set with HeLa Kyoto [2] (cell cycle stage: mitosis) were 54.5 °C and 53.9 °C, respectively. For the same sequence, the thermal stability score in the data set with HeLa Kyoto [3] (setting [5]) was -1.31; in the data set with HeLa Kyoto [3] (cell cycle stage: mitosis), -0.774. The “solubility change mitosis (log2)” value with HeLa Kyoto [4] was 0.0263.
Consider “MGIKVQRPRCFFDIAINNQPAGRVVFELFSDVCPKTCENFRCLCTGEKGTGKSTQKPLHYKSCLFHRVVKDFMVQGGDFSEGNGRGGESIYGGFFEDESFAVKHNKEFLLSMANRGKDTNGSQFFITTKPTPHLDGHHVVFGQVISGQEVVREIENQKTDAASKPFAEVRILSCGELIPKSKVKKEEKKRHKSSSSSSSSSSDSDSSSDSQSSSDSSDSESATEEKSKKRKKKHRKNSRKHKKEKKKRKKSKKSASSESEAENLEAQPQSTVRPEEIPPIPENRFLMRKSPPKADEKERKNRERERERECNPPNSQPASYQRRLLVTRSGRKIKGRGPRRYRTPSRSRSRDRFRRSETPPHWRQEMQRAQRMRVSSGERWIKGDKSELNEIKENQRSPVRVKERKITDHRNVSESPNRKNEKEKKVKDHKSNSKERDIRRNSEKDDKYKNKVKKRAKSKSRSKSKEKSKSKERDSKHNRNEEKRMRSRSKGRDHENVKEKEKQSDSKGKDQERSRSKEKSKQLESKSNEHDHSKSKEKDRRAQSRSRECDITKGKHSYNSRTRERSRSRDRSRRVRSRTHDRDRSRSKEYHRYREQEYRRRGRSRSRERRTPPGRSRSKDRRRRRRDSRSSEREESQSRNKDKYRNQESKSSHRKENSESEKRMYSKSRDHNSSNNSREKKADRDQSPFSKIKQSSQDNELKSSMLKNKEDEKIRSSVEKENQKSKGQENDHVHEKNKKFDHESSPGTDEDKSG [PPIG]”, for which the “solubility in G1/S (log2)” value with HeLa Kyoto [1] was -1.67. For the same sequence, the results for the melting temperature in the data set with HeLa Kyoto [2] (cell cycle stage: G1/S) and with HeLa Kyoto [2] (cell cycle stage: mitosis) were 45.8 °C and 47.6 °C, respectively. Besides, the figures for the thermal stability score with HeLa Kyoto [3] (setting [5]) and in the data set on HeLa Kyoto [3] (cell cycle stage: mitosis) were 1.25 and 2.05, respectively. The “solubility change mitosis (log2)” value in the data set on HeLa Kyoto [4] came to 0.846.
Turning to “MGIQGGSVLFGLLLVLAVFCHSGHSLQCYNCPNPTADCKTAVNCSSDFDACLITKAGLQVYNKCWKFEHCNFNDVTTRLRENELTYYCCKKDLCNFNEQLENGGTSLSEKTVLLLVTPFLAAAWSLHP [CD59]”, the “solubility in G1/S (log2)” value in the data set on HeLa Kyoto [1] was -0.814. In addition, the melting temperature turned out to be 56.8 °C in the data set with HeLa Kyoto [2] (cell cycle stage: G1/S) and 64.9 °C in the data set on HeLa Kyoto [2] (cell cycle stage: mitosis). For the same sequence, the figures for the thermal stability score in the data set with HeLa Kyoto [3] (setting [5]) and in the data set on HeLa Kyoto [3] (cell cycle stage: mitosis) were -2.05 and -3.23, respectively. The “solubility change mitosis (log2)” value in the data set on HeLa Kyoto [4] is -0.0336.
As to “MGKGCKVVVCGLLSVGKTAILEQLLYGNHTIGMEDCETMEDVYMASVETDRGVKEQLHLYDTRGLQEGVELPKHYFSFADGFVLVYSVNNLESFQRVELLKKEIDKFKDKKEVAIVVLGNKIDLSEQRQVDAEVAQQWAKSEKVRLWEVTVTDRKTLIEPFTLLASKLSQPQSKSSFPLPGRKNKGNSNSEN [NKIRAS1]”, the “solubility in G1/S (log2)” value with HeLa Kyoto [1] was found to be 0.0841. In addition, the melting temperature came out at 48.9 °C in the data set on HeLa Kyoto [2] (cell cycle stage: G1/S) and 48.6 °C with HeLa Kyoto [2] (cell cycle stage: mitosis). Besides, the thermal stability score in the data set with HeLa Kyoto [3] (setting [5]) is 2.91e-19; with HeLa Kyoto [3] (cell cycle stage: mitosis), -1.95e-17. Moreover, the “solubility change mitosis (log2)” value with HeLa Kyoto [4] is -0.0109.
